The Human Domainome abundance scans (Beltran et al. 2025)
± gives the uncertainty stated by the source.

B1: Tumor protein p73, residues 487 to 549; numbered along this chain, O15350 (parent)
chain: YHADPSLVSFLTGLGCPNCIEYFTSQGLQSIYHLQNLTIEDLGALKIPEQYRMTIWRGLQDLK

Variants of: B1
Test: abundance fitness (aPCA) (normalised: wild type 0, dead -1); higher = more abundant; growth selection in yeast, the domain comes from the species named
Conditions: Homo sapiens

Going from YHADPSLVSFLTGLGCPNCIEYFTSQGLQSIYFLQNLTIEDLGALKIPEQYRMTIWRGLQDLK to YHADPSLVSFLTGLGCPNCIEYFTSQGLQSIYPLQNLTIEDLGALKIPEQYRMTIWRGLQDLK, the abundance fitness rises from -0.344 ± 0.099 to -0.127 ± 0.037.

Going from YHADPSLVSFLTGLGCPNCIEYFTSQGLQSIYLLQNLTIEDLGALKIPEQYRMTIWRGLQDLK to YHADPSLVSFLTGLGCPNCIEYFTSQGLQSIYQLQNLTIEDLGALKIPEQYRMTIWRGLQDLK, the abundance fitness rises from -0.142 ± 0.037 to 0.069 ± 0.043.

YHADPSLVSFLTGLGCPNCIEYFTSQGLQSIYVLQNLTIEDLGALKIPEQYRMTIWRGLQDLK and YHADPSLVSFLTGLGCPNCIEYFTSQGLQSIYNLQNLTIEDLGALKIPEQYRMTIWRGLQDLK are within error of each other in abundance fitness: -0.059 ± 0.034 for the first, -0.027 ± 0.086 for the second.

Compared with YHADPSLVSFLTGLGCPNCIEYFTSQGLQSIYYLQNLTIEDLGALKIPEQYRMTIWRGLQDLK, YHADPSLVSFLTGLGCPNCIEYFTSQGLQSIYKLQNLTIEDLGALKIPEQYRMTIWRGLQDLK is higher in abundance fitness: -0.112 ± 0.058 for the first, 0.112 ± 0.041 for the second.

YHADPSLVSFLTGLGCPNCIEYFTSQGLQSIYRLQNLTIEDLGALKIPEQYRMTIWRGLQDLK and YHADPSLVSFLTGLGCPNCIEYFTSQGLQSIYMLQNLTIEDLGALKIPEQYRMTIWRGLQDLK are within error of each other in abundance fitness: -0.055 ± 0.031 for the first, -0.088 ± 0.052 for the second.

Compared with YHADPSLVSFLTGLGCPNCIEYFTSQGLQSIYILQNLTIEDLGALKIPEQYRMTIWRGLQDLK, YHADPSLVSFLTGLGCPNCIEYFTSQGLQSIYWLQNLTIEDLGALKIPEQYRMTIWRGLQDLK is lower in abundance fitness: -0.216 ± 0.072 for the first, -0.566 ± 0.07 for the second.

YHADPSLVSFLTGLGCPNCIEYFTSQGLQSIYTLQNLTIEDLGALKIPEQYRMTIWRGLQDLK and YHADPSLVSFLTGLGCPNCIEYFTSQGLQSIYGLQNLTIEDLGALKIPEQYRMTIWRGLQDLK are within error of each other in abundance fitness: 0.01 ± 0.048 for the first, -0.038 ± 0.033 for the second.

YHADPSLVSFLTGLGCPNCIEYFTSQGLQSIYCLQNLTIEDLGALKIPEQYRMTIWRGLQDLK and YHADPSLVSFLTGLGCPNCIEYFTSQGLQSIYALQNLTIEDLGALKIPEQYRMTIWRGLQDLK are within error of each other in abundance fitness: -0.051 ± 0.061 for the first, -0.014 ± 0.035 for the second.

YHADPSLVSFLTGLGCPNCIEYFTSQGLQSIYELQNLTIEDLGALKIPEQYRMTIWRGLQDLK and YHADPSLVSFLTGLGCPNCIEYFTSQGLQSIYDLQNLTIEDLGALKIPEQYRMTIWRGLQDLK are within error of each other in abundance fitness: 0.003 ± 0.041 for the first, -0.017 ± 0.1 for the second.

First: YHADPSLVSFLTGLGCPNCIEYFTSQGLQSIGHLQNLTIEDLGALKIPEQYRMTIWRGLQDLK
Second: YHADPSLVSFLTGLGCPNCIEYFTSQGLQSIMHLQNLTIEDLGALKIPEQYRMTIWRGLQDLK
The abundance fitness of the first is higher: 0.104 ± 0.027 for the first, -0.068 ± 0.064 for the second.

YHADPSLVSFLTGLGCPNCIEYFTSQGLQSIIHLQNLTIEDLGALKIPEQYRMTIWRGLQDLK and YHADPSLVSFLTGLGCPNCIEYFTSQGLQSIVHLQNLTIEDLGALKIPEQYRMTIWRGLQDLK are within error of each other in abundance fitness: 0.097 ± 0.089 for the first, 0.143 ± 0.039 for the second.

YHADPSLVSFLTGLGCPNCIEYFTSQGLQSIPHLQNLTIEDLGALKIPEQYRMTIWRGLQDLK and YHADPSLVSFLTGLGCPNCIEYFTSQGLQSIAHLQNLTIEDLGALKIPEQYRMTIWRGLQDLK are within error of each other in abundance fitness: -0.04 ± 0.07 for the first, 0.012 ± 0.053 for the second.

YHADPSLVSFLTGLGCPNCIEYFTSQGLQSITHLQNLTIEDLGALKIPEQYRMTIWRGLQDLK and YHADPSLVSFLTGLGCPNCIEYFTSQGLQSICHLQNLTIEDLGALKIPEQYRMTIWRGLQDLK are within error of each other in abundance fitness: 0.014 ± 0.059 for the first, 0.112 ± 0.054 for the second.

YHADPSLVSFLTGLGCPNCIEYFTSQGLQSISHLQNLTIEDLGALKIPEQYRMTIWRGLQDLK and YHADPSLVSFLTGLGCPNCIEYFTSQGLQSIKHLQNLTIEDLGALKIPEQYRMTIWRGLQDLK are within error of each other in abundance fitness: 0.113 ± 0.032 for the first, 0.137 ± 0.1 for the second.

YHADPSLVSFLTGLGCPNCIEYFTSQGLQSIFHLQNLTIEDLGALKIPEQYRMTIWRGLQDLK and YHADPSLVSFLTGLGCPNCIEYFTSQGLQSIWHLQNLTIEDLGALKIPEQYRMTIWRGLQDLK are within error of each other in abundance fitness: 0.069 ± 0.061 for the first, -0.001 ± 0.043 for the second.

YHADPSLVSFLTGLGCPNCIEYFTSQGLQSIDHLQNLTIEDLGALKIPEQYRMTIWRGLQDLK and YHADPSLVSFLTGLGCPNCIEYFTSQGLQSILHLQNLTIEDLGALKIPEQYRMTIWRGLQDLK are within error of each other in abundance fitness: 0.03 ± 0.071 for the first, 0.105 ± 0.032 for the second.

YHADPSLVSFLTGLGCPNCIEYFTSQGLQSIRHLQNLTIEDLGALKIPEQYRMTIWRGLQDLK and YHADPSLVSFLTGLGCPNCIEYFTSQGLQSIEHLQNLTIEDLGALKIPEQYRMTIWRGLQDLK are within error of each other in abundance fitness: 0.071 ± 0.03 for the first, 0.095 ± 0.053 for the second.

Compared with YHADPSLVSFLTGLGCPNCIEYFTSQGLQSIYHLQRLTIEDLGALKIPEQYRMTIWRGLQDLK, YHADPSLVSFLTGLGCPNCIEYFTSQGLQSIYHLQLLTIEDLGALKIPEQYRMTIWRGLQDLK is lower in abundance fitness: 0.034 ± 0.031 for the first, -0.061 ± 0.034 for the second.

Going from YHADPSLVSFLTGLGCPNCIEYFTSQGLQSIYHLQCLTIEDLGALKIPEQYRMTIWRGLQDLK to YHADPSLVSFLTGLGCPNCIEYFTSQGLQSIYHLQVLTIEDLGALKIPEQYRMTIWRGLQDLK, the abundance fitness rises from -0.567 ± 0.33 to -0.025 ± 0.035.

YHADPSLVSFLTGLGCPNCIEYFTSQGLQSIYHLQQLTIEDLGALKIPEQYRMTIWRGLQDLK and YHADPSLVSFLTGLGCPNCIEYFTSQGLQSIYHLQMLTIEDLGALKIPEQYRMTIWRGLQDLK are within error of each other in abundance fitness: 0.022 ± 0.038 for the first, -0.007 ± 0.054 for the second.

First: YHADPSLVSFLTGLGCPNCIEYFTSQGLQSIYHLQFLTIEDLGALKIPEQYRMTIWRGLQDLK
Second: YHADPSLVSFLTGLGCPNCIEYFTSQGLQSIYHLQILTIEDLGALKIPEQYRMTIWRGLQDLK
The abundance fitness of the first is lower: -0.198 ± 0.072 for the first, -0.02 ± 0.073 for the second.
